This note sets out measurements from the DeepSol protein solubility set.

The nature of this series: soluble on expression in E. coli; label from the status in PepcDB or PDB records.
Turning to “MRSFIIFSTLLVILVQCGYPVAENSYPTTPSYPTPPPSYPTPKKYPVAPTYPSTPSYSAPPAQSAYSSSDNQEDTESESVTGAASTSEYRKRAKARTAHNRQFQRRALQPIKRFQQKKQ”, the “soluble on expression in E. coli” value is listed as “not soluble”.
On to “MYNALYLYCSEYKYEDSIMTISIRLPSDLETRLNNLAAKTGRTKSFYLREIIERGIEEAEDYYLASQVRERVRKGEGTFYSSEEVRKELGLDD”, for which the “soluble on expression in E. coli” value is listed as “not soluble”.
With “EEKYVTVQPYTSQSKDEIGFEKGVTVEVIRKNLEGWWYIRYLGKEGWAPASYLKKAKD” the entry was “soluble”.
In the case of “MAKLLYVQTSGIDTPERLYAPFVLAMTAKAMGDDAIIYFVIKGVTVVKKDNAEKIKMGNFPPLSELMKQARESGVEMMVCDRSSELLGIDKGEIVDGVKIVGAATLNQLVLEADGVLYF”, the “soluble on expression in E. coli” value is given as “not soluble”.
Regarding “GSPEETLVIALYDYQTNDPQELALRCDEEYYLLDSSEIHWWRVQDKNGHEGYAPSSYLVEKSP”, the “soluble on expression in E. coli” value was “soluble”.
Turning to “MGSDKIHHHHHHMNDLLPFLAQVSLFKGIETEELPKMLNRLNARKVSYKKNDVILREGQSVHSVGIMLSGKVKVVKEDFKGNTNVMTFIEPGAMFAEAYACTQTANLPFTVLSVMETKILWIDYRKIISTCTSACESHEKLIENMMKALASKSILLNQKIEHISKRTTQEKLLTYLFDQSKKSGSNEFEIPFSRQELADYLCVDRSAMSNELCKLQREGVLNFHLNHFKLSKSSSEAQL”, the “soluble on expression in E. coli” value was “not soluble”.
As to “SVLQVLHIPDERLRKVAKPVEEVNAEIQRIVDDMFETMYAEEGIGLAATQVDIHQRIIVIDVSENRDERLVLINPELLEKSGETGIEEGCLSIPEQRALVPRAEKVKIRALDRDGKPFELEADGLLAICIQHEMDHLVGKLFMDYLSPLKQQRIRQKVEKLDRLKARAPNSSSVDKLAAALEHHHHHH”, the “soluble on expression in E. coli” value is “soluble”.
With “MTASERVVVKELSSSLLDMKFMLKKKKQIETKAAKKKEAKLDQLITEKEAEATCSTEILKSSEPKLEICYDYAKLENLKFGRLSFGGFNKEVELLMEYYEKLQNGMLSDSDDDGMDVDDEEMAKSLGGQKLAALDKKSQSKRERRQQNERNEETTGGRRFNIKDIRKRFAADDVADAPERKFMKPAEDC” the entry was “not soluble”.
In the case of “MDKKTIYFICTGNSCRSQMAEGWGKEILGEGWNVYSAGIETHGVNPKAIEAMKEVDIDISNQTSDLIDNDILKQSDLVVTLCSDADNNCPILPPNVKKEHWGFDDPAGKEWSEFQRVRDEIKLAIEKFKLR”, the “soluble on expression in E. coli” value is listed as “soluble”.
The result for “MAIKDLFNNFFLMDDEEEVESPEERQRRVVQNEENETNNVQQNQPQQSERSYSNQSKLKTVPQKKTTRNYNSEERNVRMNQPPSKSNGKNVVTMNQTSQSYSGYESSKMCLFEPRVFSDTQDIADELKNRRATLVNLQRIDKISAKRIIDFLSGTVYAIGGDIQRVGTDIFLCTPDNVEVAGSITDHIEQMESQHYELEHHHHHH” reads “not soluble”; that for “MISSPHKLTGDIMTKRTKRTRRLFSAEFKLEAAQLVLDQNYSVTEAAQAMNVGKSTMDKWVRQLREERQGKTPKASPMTPEQIEIRELKKKLARLEEHNEILKKATALLMSDSLNNSLEHHHHHH”, “soluble”.
Consider “DIEVSEDVRKEQLGWLSCVSRAILKQNIITYSQPIVHAYSHLPASQECLVRILEEDGTVIAPGRFLPIISDTHLYTRLSRHMIRSTLHYMRDKKGDFSINLSPQDLLSDKTLMLLEHEISQLNDPTRIGLEVLESEQIKDYGRMIEVCSHFRKLGARIIVDDFGSGYSNIDEILKLEPEVIKLDGSLIRDIDKDLKQRKIASQLVRLCQVFNAETVAEFVHNREVCKIAQDMGVDYLQGYYLGEP”, for which the “soluble on expression in E. coli” value is given as “not soluble”.
In the case of “MKSHERGRVILVIDDTDCGRVAAERLVFMARAGFRGDVFVVFGKDIEISPIASYEKEMKIYTSLRVKASKFVEFYRERLEEAGLEVKQVKIILGNVSEEVLRLEKLLNPDLIVFGMEKRGFLKRLLRGDPYKEIIYETKAPVMVCKAGYERKDVDYEKIRCAKCVMG”, the “soluble on expression in E. coli” value is recorded as “not soluble”.
As for “MSLGLGSSNRQTDDWNAKLYDERHRFVSAYGEDLIQWLAPKEGECVLDLGCGTGDLTEQIHQLGSRVIGVDVSESMIEQAKGKFPHLDFQVAEATDLSFSEKFDAIFSNAVLHWIKDAEEALTVIYRSLKPGGRFVAEFGGKGNVETIVNTLADTMSQADSRWSKEELPWFFPSIGQYTSLMEQVGFRVTHALHFNRPTLLEDGDGIRHWLAMFAESVLEGKSETERAEIVRFVEAEVKDALFDGTNWWADYKRIRVVGMKQEGHHHHHH”, the “soluble on expression in E. coli” value is reported as “not soluble”.
Regarding “MGSDKIHHHHHHMDEALAHANGETPAVGDYMTRDVATVSADDTVSDVAARISESDHNGFPVTDGRHVEGFVSARDLLLADPDELLFKVMTEDLVVAHPEMDVTDAARVILRSGIQKLPVVDDAGNLVGIITNADVIRSQIERATPEKVGKLMRTLETIHGVSITEERRTVTISDVVPTQGKVYADELEGRRYELENGLAEPLVVIDNGSTGDDGSLLLADGHHRVMAAERAGVAEMDAYVIVLERAVDLGMARTARTEGLDSIADIDVVDYARHPLVETIERLQ”, the “soluble on expression in E. coli” value is recorded as “not soluble”.
With “GPLGSCDSGTGLTGNYSQDTLTVIATLREAIDLPQDAPNRQEVQDTARGQINDYISRYRRKGDAGGLKSFTTMQTALNSLAGYYTSYGARPIPEKLKKRLQLEFTQAERSIERGV” the entry was “soluble”.
Consider “VSAEEQDTRSGGIQVIARAAELLRVLQAHPGGLSQAEIGERVGMARSTVSRILNALEDEGLVASRGARGPYRLGPEITRMATTVRLGVVTEMHPFLTELSRELDETVDLSILDGDRADVVDQVVPPQRLRAVSAVGESFPLYCCANGKALLAALPPERQARALPSRLAPLTANTITDRAALRDELNRIRVDGVAYDREEQTEGICAVGAVLRGVSVELVAVSVPVPAQRFYGREAELAGALLAWVSKVDAWFNGTEDRK”, for which the “soluble on expression in E. coli” value is recorded as “not soluble”.
On to “MIQTPYYLIDADRLRQNMAVVDRLRQASGAKALLALKCFATWPAFEHMRDHMDGTTSSSLYELRLGREKFGKETHAYSVAWPDHEIDEAVGYADKIIFNSVGQLARFRNRTGGIARGLRLNPGLSTSGFDLADPARPFSRLGEWSAEKIEAVLPDISGVMIHYNCENADVDLFERQLSEIEGRFGAILDRLDWVSLGGGIHFTGEGYPVDRLAARLKAFAAAHGVQVYLEPGEAAITRSATLEVTVLDLLDNGKQLAIVDSSVEAHMLDLLIYRQSAKVEPDAGDHSYMVCGKSCLAGDIFGEFRFAQPLQVGDRLSIADAAGYTMVKKNWFNGVKMPSIVIREPDGSLRVAREFGYGDYASSLG”, for which the “soluble on expression in E. coli” value is listed as “not soluble”.
The result for “MSLATIKDVAQRAGVSPSTASRAMHGSKIISKPTRDKVIKAARELNYAPDFNAQNLATKASNTIGVVLPVDHHEIFSNPFFLEMIRGINEVCSKNGAMTTLATGISSDELVHNIDVMIAQGHIKTFILLYSEKNDPVVERLKQFDVQYVVIGKPYQDVNKTSYVDNDNIQAGTDAAQYLIDHGHRRIGFLYSDLSRMVQSDRMLGYQRVMMQNQLPNIMLEERFETHAAGVKTLHKFFEQYPDVTGFVAVDDMLALKLQQVLHNDPNWKVKQFSLIGFNNSIFSDLAHPMLTSIAVFPQRLGEEAAKIAMADHPADELSTAVIVPHQIVKRHSVHQIKSEGHHHHHH” reads “soluble”.
For the sequence “MKLMDVRVSGLNVWITDKHILKGISFKAQPGTVTAIMGPSGSGKSTLIRVINRLIDLIPGARVEGEVWINNMNVMKEDPYNIRRYTGMVFQEPNPFPHMTIYENVAIGPKLHGLAKNKKELDEIVEWALKMAHLWDEVKDRLSDYPHQLSGGQRQRLSLARALALKPRVLLLDEPTANIDPVSTVKIEQSIVEYAKEEMATVIIVTHTPQQAARISDQILFLYEGRVIEYGPTKELVLRPRHELTKKFLGGEV”, the “soluble on expression in E. coli” value is listed as “soluble”.
